In the RNAGym collection of RNA variant scans (doi:10.7554/elife.80360):

B1: HDV Ribozyme (parent)
chain: GGCCGGCAUGGUCCCAGCCUCCUCGCUGGCGCCGGCUGGGCAACAUUCCGAGGGGACCGUCCCCUCGGUAAUGGCGAAUGGGACCCA

Variants of: B1
Experiment: self-cleavage, relative activity (ratio to wild type); higher = more cleavage; co-transcriptional

Variant	self-cleavage
C33U A87U	0.885
C33U A87G	0.79
G35A A56G	0.769
G34A G40U	0.0685
C33A U65A	0.332
C33U A78C	0.0831
C33G A78G	0
G35U A87C	0.432
C33G A83C	0.252
G34U A83C	0.133
G34U A83U	0.173
C33U G68A	0.796
C33G C84A	0.231
G34A C36G	0.122
C33G G53C	0.156
G35A G80U	0.151
G35A G80A	0.196
G35A G80C	0.162
G34C C86A	0.13
G35U A51G	0.356
G34U U69C	0.204
G34U U69A	0.102
G35U C36G	0.104
G35C G81U	0.0739

Variant	self-cleavage
G35C C66G	0.228
G34C G53C	0.0898
G34C U46A	0.158
G35U C48U	0.554
C33G G35A	0.0604
G34C G54C	0.295
G35A A43G	0.185
G35A A43U	0.108
G34U G54U	0.0923
C33A G73C	0.149
C33G A45U	0.185
C33A G74U	0.0755
C33A G74C	0.106
G34A U47A	0.0997
C33U A42U	0.345
C33A G39A	0.162
C33U G34U	0.219
G34A A45U	0.16
G34C A42C	0.125
C33U C49A	0.946
G35C C85G	0.0923
G35A C36A	0.115
C33U C57A	0.935
C33U C57G	1.04

Variant	self-cleavage
C33U C57U	0.719
G34C U65A	0.138
G34C U65G	0.208
G35C G39U	0.0302
G35A C85U	0.541
G35A A51G	0.673
G34A	0.189
G34C	0.195
G34U	0.19
C33G U37G	0.161
C33G C62U	0.259
G34U C84G	0.161
G35A U79G	0.397
C33A G54A	0.253
C33A G67C	0.277
G34U C62A	0.0831
G34U C62U	0.229
G34C C36G	0.095
C33G C41U	0.119
C33G C41G	0.111
G35A A45U	0.406
C33U C44G	0.453
C33U A77C	0.298
G34C U79A	0.104

Variant	self-cleavage
C33G C48A	0
C33G G74A	0.0449
C33G G81U	0.0354
G35A C63G	0.346
G34U C66U	0.166
G35A U46C	0.289
G35A U46G	0
G34C G55U	0.113
G34C G55A	0.147
G35U A78U	0.0545
G35U A78C	0.133
G35A A78C	0.0528
G34C G67C	0.123
G34C G67A	0.211
G34C G67U	0.166
C33G U60A	0.19
C33G U60C	0.196
G34U G59C	0.142
G34U G59A	0.203
C33U U46C	0.68
C33U A70G	0.758
G35A C48U	0.499
G35A C48G	0.539
G35C U46G	0.0831

Variant	self-cleavage
C33G G68C	0.0875
C33G G68U	0.173
G34U G55U	0.105
C33A G59A	0.343
G35U C61A	0.428
G35A A77G	0.277
C33U C36U	0.519
C33A G68A	0.157
C33A G81C	0.222
C33A G81A	0.0339
G35C G53C	0.208
G35C G53A	0.172
G34A C44G	0.134
G34A C44U	0.0863
C33G U65C	0.115
C33G U65G	0.222
G35U A77C	0.0875
G34U G81A	0.166
G35U C86A	0.35
G35U C86G	0.397
G34U G53A	0.189
C33U U72A	0.346
C33U U72C	0.268
C33A U37G	0.119

Variant	self-cleavage
C33A U37C	0.469
C33A G35U	0.137
C33A C66G	0.302
C33A C66U	0.241
C33A C66A	0.485
G35A C41A	0.562
G34C C58U	0.181
G35A G40A	0.346
G35A G40U	0.42
C33G C58U	0.147
C33G C58A	0.369
G34C C66G	0.169
C33G C49A	0.119
C33U C58A	1.06
G34A G81C	0.0733
C33G A70C	0.145
G35A A42U	0.166
G35A A42C	0.277
C33G C86U	0.214
G34A C61A	0.302
G34A C61G	0.104
G34U G80C	0.143
G34U G80A	0.113
G34C A70C	0.123

Variant	self-cleavage
C33G G39A	0.0997
G35A G39C	0.113
G34A C85G	0.0978
G34A G73U	0.0437
G35C C61A	0.283
G35C C61U	0.188
G35A C64G	0.31
G34C G59A	0.143
G34C C48A	0.161
G35A C86U	0.712
G35U C62G	0.259
C33G C64G	0.156
C33U U65C	0.969
C33U U65G	1.14
C33U U65A	0.739
G34U U65A	0.0923
C33U G35A	0.205
C33U G35U	0.383
C33U G35C	0.237
G34A U60A	0.204
G35C C75A	0.225
G35A C57A	0.545
G34U A71C	0.161
